Five molecules from publication PMC10651883, “M. mazei glutamine synthetase and glutamine synthetase-GlnK1 structures reveal enzyme regulation by oligomer modulation” (Nature Communications, 2023) can be followed below.

The target of data set [1] is T1, Mm GS (Methanosarcina mazei, UniProt Q8PY99).
T1 construct: gene glnA1; labile dodecamer (two hexamer rings), active site between two subunits; catalytic residues Asp57, Glu307
Nature of the data set: cryo-EM structure, […] A. It is filed as binding. Particulars: formed in situ from ATP; with Met-Sox-P; 5 mM MgCl2, pH 7.5; active site.

Data set [2] concerns the molecule itself. In words: crystal structure; Mm GS-GlnK1 complex formed by mixing ~2:1 (excess GlnK1) and SEC; 30% PEG 400, 0.1 M sodium cacodylate pH 6.5, 0.1 M LiSO4.
Data set [3] deals with T2, Methanosarcina mazei glutamine synthetase (Methanosarcina mazei), Q8PY99.
T2 chain: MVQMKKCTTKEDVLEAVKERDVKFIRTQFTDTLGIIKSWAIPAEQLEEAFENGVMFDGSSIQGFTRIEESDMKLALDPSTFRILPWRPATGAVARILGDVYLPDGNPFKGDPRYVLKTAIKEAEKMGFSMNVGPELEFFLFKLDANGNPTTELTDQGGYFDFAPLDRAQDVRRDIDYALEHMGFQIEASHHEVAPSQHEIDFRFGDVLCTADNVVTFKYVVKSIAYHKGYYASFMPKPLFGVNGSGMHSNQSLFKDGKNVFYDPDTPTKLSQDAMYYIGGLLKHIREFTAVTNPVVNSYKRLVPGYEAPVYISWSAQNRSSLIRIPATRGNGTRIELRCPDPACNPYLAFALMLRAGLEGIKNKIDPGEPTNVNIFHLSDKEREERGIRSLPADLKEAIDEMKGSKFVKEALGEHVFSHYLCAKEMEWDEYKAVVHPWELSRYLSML
Nature of the data set: fluorescence polarisation; apparent; GS titrated to saturation into 1 nM Fluorescein-12-ATP, then GlnK1 titrated in; 25 mM Tris pH 7.5, 100 mM NaCl, 1 mM MgCl2. Particulars: remark: other sources report otherwise. (In general: Fluorescence polarisation rises when a labelled molecule tumbles more slowly, as on binding a larger partner.)

Data set [4] concerns the molecule itself. In words: mass photometry; protein at 75 nM final, 20 mM Tris pH 7.5, 150 mM NaCl, room temperature; Refeyn OneMP; four measurements.
Data set [5] deals with the molecule itself. Nature of the data set: cryo-EM structure; apo Mm GS at ~20 uM (1.0 mg/mL), 12.5 mM Tris pH 7.5, 5 mM MgCl2, 150 mM NaCl, 2.5% glycerol, 1 mM bME; dodecamer and partial oligomer from one dataset.
Data set [6] concerns the molecule itself. Nature of the data set: crystal structure; Mm GS(R167L-A168G), 35% PEG 200, 0.1 M sodium citrate pH 5.5; three subunits in the asymmetric unit, symmetry generates the dodecamer.

Usually stoichiometry N stands for a count of units in the complex or per binding partner.

For `Nc1ncnc2c1ncn2[C@@H]1O[C@H](COP(=O)(O)OP(=O)(O)O)[C@@H](O)[C@H]1O` [ADP], the “cryo-EM structure, 2.7 A” value in data set [1] is recorded as “In the Mm GS TS structure, the ADP is anchored into the active site pocket”.

B1: Methanosarcina mazei GlnK1 (natural protein)
chain: MVAMKYVIAMIRPERLDAVKRELQKIEVSRLTVSSVSGYGAQKGYMEIYRAMEYDANLLEKIKIEIAVNDEFLEPTIEAIKTGAKGSDGYVGSGKIFVLPLENVIRIRTNETGPEAI
notes: GlnK1, PII family nitrogen regulatory protein of Methanosarcina mazei; gene bought from Genscript, in pET15b; Trimer in the crystal structure of the complex with GS; also called Mm GlnK1; WT GlnK1; source: E. coli C41(DE3), purified (cobalt NTA TALON)
For B1, the “stoichiometry N” value in data set [2] is 3. In data set [3], the Kd is 6.4 µM.

B2: Methanosarcina mazei glutamine synthetase (enzyme)
chain: MVQMKKCTTKEDVLEAVKERDVKFIRTQFTDTLGIIKSWAIPAEQLEEAFENGVMFDGSSIQGFTRIEESDMKLALDPSTFRILPWRPATGAVARILGDVYLPDGNPFKGDPRYVLKTAIKEAEKMGFSMNVGPELEFFLFKLDANGNPTTELTDQGGYFDFAPLDRAQDVRRDIDYALEHMGFQIEASHHEVAPSQHEIDFRFGDVLCTADNVVTFKYVVKSIAYHKGYYASFMPKPLFGVNGSGMHSNQSLFKDGKNVFYDPDTPTKLSQDAMYYIGGLLKHIREFTAVTNPVVNSYKRLVPGYEAPVYISWSAQNRSSLIRIPATRGNGTRIELRCPDPACNPYLAFALMLRAGLEGIKNKIDPGEPTNVNIFHLSDKEREERGIRSLPADLKEAIDEMKGSKFVKEALGEHVFSHYLCAKEMEWDEYKAVVHPWELSRYLSML
notes: glutamine synthetase (GS) of Methanosarcina mazei; gene bought from Genscript, in pET15b; Oligomeric state depends on concentration: dimers at 75 nM, dodecamers and partial oligomers at about 20 uM (1 mg/mL); also called Mm GS; WT Mm GS; source: E. coli C41(DE3), purified (cobalt NTA TALON)
Regarding B2, the “stoichiometry N” value came to 2 in data set [4] and 12 in data set [5].

B3: Mm GS(R167L-A168G) (enzyme, Methanosarcina mazei)
chain: MVQMKKCTTKEDVLEAVKERDVKFIRTQFTDTLGIIKSWAIPAEQLEEAFENGVMFDGSSIQGFTRIEESDMKLALDPSTFRILPWRPATGAVARILGDVYLPDGNPFKGDPRYVLKTAIKEAEKMGFSMNVGPELEFFLFKLDANGNPTTELTDQGGYFDFAPLDLGQDVRRDIDYALEHMGFQIEASHHEVAPSQHEIDFRFGDVLCTADNVVTFKYVVKSIAYHKGYYASFMPKPLFGVNGSGMHSNQSLFKDGKNVFYDPDTPTKLSQDAMYYIGGLLKHIREFTAVTNPVVNSYKRLVPGYEAPVYISWSAQNRSSLIRIPATRGNGTRIELRCPDPACNPYLAFALMLRAGLEGIKNKIDPGEPTNVNIFHLSDKEREERGIRSLPADLKEAIDEMKGSKFVKEALGEHVFSHYLCAKEMEWDEYKAVVHPWELSRYLSML
notes: glutamine synthetase (GS) of Methanosarcina mazei with R167L and A168G; gene bought from Genscript, in pET15b; everywhere else R167L; also called mutant Mm GS; source: E. coli C41(DE3), purified (cobalt NTA TALON)
For the molecule B3, the “stoichiometry N” value in data set [6] is 12.

B4: Bacillus subtilis glutamine synthetase (enzyme)
chain: AKYTREDIEKLVKEENVKYIRLQFTDILGTIKNVEIPVSQLGKALDNKVMFDGSSIEGFVRIEESDMYLYPDLNTFVIFPWTAEKGKVARFICDIYNPDGTPFEGDPRNNLKRILKEMEDLGFSDFNLGPEPEFFLFKLDEKGEPTLELNDKGGYFDLAPTDLGENCRRDIVLELEEMGFEIEASHHEVAPGQHEIDFKYAGAVRSCDDIQTFKLVVKTIARKHGLHATFMPKPLFGVNGSGMHCNLSLFKNGVNAFFDENADLQLSETAKHFIAGIVKHATSFTAVTNPTVNSYKRLVPGYEAPCYVAWSAQNRSPLIRIPASRGISTRVEVRSVDPAANPYLALSVLLAAGLDGIKNKLEAPAPIDRNIYVMSKEERMENGIVDLPATLAEALEEFKSNEVMVKALGEHLFEHFIEAKEIEWDMFRTQVHPWEREQYMSQY
notes: glutamine synthetase (GS) of Bacillus subtilis; also called Bs GS; apo Bs GS
Consider B4, for which, in data set [4], the “stoichiometry N” value was 12.
